Measurements as given in the DeepSol protein solubility set.

experiment: soluble on expression in E. coli; label from the status in PepcDB or PDB records

Row | Sequence | soluble on expression in E. coli
1 | MGDGVLELVVRGMTCASCVHKIESSLTKHRGILYCSVALATNKAHIKYDPEIIGPRDIIHTIESLGFEASLVKIE | soluble
2 | MGSDKIHHHHHHMTLFLQKGYEETTMREIVHKSGRSKGAIYHHFSSKQEILNFQISLEMDNLRQCLDALISNNQLNAQQKFKGILTYFFENPSLTELTRLHWAEKLPFALLETLKNSLTVVAQYIEAIIQQEIKEKKLNCQYSKELSEILVLLFDIWLDPSIVDFDYQTACQRIDFIALLLEKFDLPLLDENDKNKLKNGLKHYDEKNTL | not soluble
3 | MAHHHHHHMSCRRFHKVLQANEEENEHAREAFLASWRSEYQQFLQSKLAALVWHVEHHCRSHVTPQTATSMACGEVPRMKVATTAPNSTTTASTNSNSAMMAEDAEQHDACNVLAHKQNRRTTLPSHFFLEQTPTSMPFYPREFIVEKEAQMFRQTNSPFTVGETPHGSQHSRTEINASTATVVPLPSVHKKETADRNSEKDDDRTAILAVSPSPRQISMHSPSQIEDDGSLDASLSPAATVAVTNVLTRTPGPAVQLQKMLPTEEVSKANLRKTIARLYSESVDTRSSWSDTWSQKKQRAASLLPPPSSASHMMHLKTMHVSHGTPCENMEASRNDMLSKKQLICELRRLYGLEDER | soluble
4 | MSLTADKYTVAINENALKILGEIVFLMGASQNFAKYPVSFIINYLLPSIYLNQYRIYRTVKDNKPIGFACWAFINDQVEKELIENDINLSVEERNSGENIYVLYFIAPFGHAKQIVHDLKNNIFPNKIVKGLRLDKDGKKVLRVATYYEGHHHHHH | soluble
5 | MPPKKVSPGITVILIDAGSNMSVKDTETGKSAFENAINAADWIVSRKLFSKDPELFSVMAYNLDPKEYKTEVGGQTFNGVQCQNEKFTPASFDHLKFITKELQQNTEMIDPNFFKGVLGAVAVLKDQIESYPNPSGITLIVLTNGLNENIRQENFDLLVEAVSESNADLMIIGIDENPEYPASRVAELAETLEGRTYTFQNVAKMLSTFQARQKSERKYNKMWDIAPGIHLPVIFALKSEKSTALLKFKNADSEGNEMVRLEQMHVETDEVAPKDEFKSPVLEEKPKFQKNFKPVENIKTMHGSEILNFLKSIINASGYNFGKSVIMMDPEYLKEKYNDHNFNEGQTGGVLKLIQFTKRANILDSYLLDASAKTVLPALNSPKSGATKATVSLIEAMLSLRVAAICRYTFHAKSHVQLIALLPHQDEETGVFYLRSVKLPFSDDMRTLKFPKFSFDEEDEDLNKPTVAQLSAVDDLIDCMQLQEDEISSLVEGGMSDPKLQMQCHFLKSLVLHPNDTFENHSNRTNQILDQIMAPKRRVEAEHPEIFQKLGREFNLQPIQKTKRERVTVEPEDLQTMISEWTEKKQNMTQPDEVDDGASQKKKKKPNAKKLTRKEEVQMDIMEDGGASRVCSKILEMISNTCKFQPNGAVTEFFTLLVNELNVIRSVFVENSKCDEFNELLKKLKDEEDFEPFAEVLSEEKSCNPIDSSEVSMSEVSVANAAEFWEED | not soluble
6 | NYNHPFTQLGNQVFPTTPIVSGVRGRVVEVPVQANQPLKTGDILFKIDPVPFEAEVARLEAKVKEASQGALGLESDLREAEAAVLKAQADRDKAQREFSRYQRGFDRGAFTEQDLDTRRQAYKAAEAMLDVAILQQEQAQIALDSEIGGENTQVAQLLAELRKAEFNLEQTIVRAPTDGYVTQLALR | soluble
7 | AHHHHHHGSLPKNYDPNEIEPKWQKYWLEEKIYKYKLEPDKPSYAIDTPPPFTSGTLHLGHVLSHTWIDIIARYKRMRGYNVLFPQGFDNHGLPTELKVEKEFGISKDQPEEFLKKCIEWTWQAIEKMRAQFIRIGYSADWDLEYHTMDDWYKAAVQKSLLDFYKKGLIYREEHPVYWCPRCRTSLAKAEVGYVEEEGYLYYIKLPLADGSGYIPIATTRPELMPACVAVFVHPDDERYKHLVGKKVKLPIYEREVPILADEDVDPNFGTGAVYNCTYGDEQDIVWQKRYNLPVIIAINEDGTMNENAGPYAGLKIEEARKKIAEDLEKMGLLYKKEKITHRVLRHTERSSCMAPIELLPKKQWFIKVREFTDDIVEVAKKINWYPEDMFLRLKDWAESMDWDWVISRQRVFGTPIPFWICKNGHIIPAREEDLPVDPRFDKPPVEKCPVCGAEIEPVTDVLDCWVDSSITPLIITKWHEAIKGDEEAKKWFEHNFPTALRPQGTDIIRTWAFYTIFRTYMLTGEKPWNDIVINGMVAGPDGRKMSKSYGNVVSPEEVIPKYGADALRLWTALAPPGEDHPFKWEIVDYNFRFLQKLWNIYRFAERHIKDFDYEKYKHIELEPLDRWILSRLHRIIKFATEELEKYRFNLITRELMTFIWHEVADDYIEMIKHRLYGEDEESKLKAKVALYELLYNIMLLLAPFVPHITEELYHHIFKEKIGEKSVHLLQWPEYREDRIDEEAEKIGELAREIVSAMRKYKNSHGMPLNAKLKHVAIYATDSYEMLKVIEKDIAGTMNIERLEIVKGEPQLEEKVVEIKPIYKRIGPRYGKLVPKIVKHLQENAEEIGRRIKEEGKVEFEVEGQKVVLEKEDIEIKKAVFSEGEEVETAVVRDATILFF | not soluble
8 | MSLIYHRIAVNVPLSDGLLTYSHSDPLPPGTRVLVPFRNKTVVGMVWETDIAPDMDMARILSVQTAFVEEKPLPESWRDLLAFTSRYYHYPTGQAVFAALPQGLKETRAVEMPQPPLFYALNEAGRAQTPPPARFNKKAALWDALLSGGMTMAALKQVNAQAAKLIEDWAEQGWIETTEAAKPVLRSYHGQASHSEFVLNADQQQASDEIQTAFGSFQPFLLYGITGSGKTEVYFDAMAKVLAQGRQVLFLLPEINLTPQLLKRVENRFADVPTAVLHSQMAAGKRTQDYLRAMLGQAKLVIGTRLAVFTPMDDVGLIVVDEEHDGSFKQDNELRYHARDLAVWRAKQGGCPIILGSATPSLESWHKAQSGAYRLLQLTERAHTAAQLPQVDILNVGRLKLDNGFSPQALQLLKQNFEAGGMSLVYLNRRGFAPALFCGDCGYTFGCPNCSAKMVLHQRARQLRCHHCDHREPIPYKCPDCGNQDLTAVGHGTQRVEETLRTFLPKAAVVRVDRDSTAHKNDWADLYRRIADNKIDILVGTQMLAKGHDFARLNLVIVLNADGSLYSADFRAPERLFAELMQVSGRAGRADKPGKVLIQTQLPEHPVFAAVKAQDYAVFAENELNERQMFAMPPFGFQTAVRADAPRVADAMEFLNAAKETLAPLLPESVSQFGAAPMLMVRLAERERAQIFLESPSRQDLHRAVSLWAQVLQQNRDGKIRWSVDVDPQEAEGHHHHHH | not soluble
9 | MSSETLEFSGCNFFRIRLAYSILSGRPIRIINIRKNDDRPGIRDFESKLIGLLEKVTNGTKVEISRTGTQVIFRPGMITGGVVNLDCGTERCISYFLEPLLLLSPFCKVPMVIKLKGVTNAPGEISVDGMKASWLKVYNKFVLNDEKLDIKIQARGLKPEGGGVVVFTAPIVKTLRPVKRQQVGKVCKIRGQAYVTKVTPSLAYRMIDAAKKAMHGYISDVYITVDQRKGDAGGASPGYGLFLTAETTEGVIYQAEAISRPKGESGVPILPEDIGIEAGHALLQQIYMGGALDSSAQILASTFMTLCPKDVSHFLYGPLPMYSVHALRHLKQFFEIEFKMEDFKKTLKEEEADLKTGSADKAMVTAVGVGYSNLNKTIL | not soluble
10 | MRYCQFEGCSNTTEKGAYCSEHARKSRKKKKPINVYHHDNKSFYRTKEWQDVADFVYEREGGCCQRCGRFVFGRQAHRHHVIPIKKNEMLKLDPNNIRLLCPKCHVIEENEADEKKVFPSYFKK | not soluble
11 | MSYGDGLSGAEYLASIYGTEKDKVNCSFFFKTGACRHGDKCSRAHHTPTFSPTVVLKNFYHNPVVDVRQADAFDKVGKRNDQEQRYFDDFYEEVFVEMERKYGEVEEINVCENIGEHMVGNVYVKFMKEEDAEKAKNDLNNRWFNGQPIYAELCPVTDFRESRCRQHEVTTCSKGGFCNFMHLKAISAELGDRLYGRRGRRADAAGHYPSQRGGSGGGGGGGGGGGYGSGGGWGGGGGGRDRDRGGWGGGGGGRGYGGGGGGGGYGYGGGGGGRRRSRSRDRRRY | not soluble
12 | ASPNSPKDNTWIQAASLTWLMDMSSLLYQLISTRIPSFASPNGLHMREQTIDSNTGQIQIDNEHRLLRWDRRPPNDIFLNGFIPRVTNQNLSPVEDTHLLNYLRTNSPSIFVSTTRARYNNLGLEITPWTPHSANNNIIYRYEIFAPGGIDINASFSRNHNPFPNEDEITFPGGIRPEFIRSTYEYHNGEIVRIWINPNFINPSTLNDVSGPSNISKVFWHENHSEGNNMDSKGFILDLDYNQDFDMFAPNGEIPNNNLLNNNSLNVIQNSEYQIKNKKDRNIVVTLDSDYGGSPVESYKNFGFENQKWNIKYDSKKNAYKIYNRETPTLLLSWNSNSSNGEQVIRGYTESGSNNQYWTIEKNVNGFYKFRNLSDPSKILDLKDGNTLNKTPLVVSSENSSSSQEWLIEKTNYQTVKDGTYQVSSKLNENKVIEQISTNKVHIFSNSDKENQVWNLIYNPILKAYKIKSLKYPNYSLAWDSNNTRTIVAATGDYNDQYWLIERNEDNTYIIRNYENRKIVLDLSNGSTTDGNGLLGFEFHGGINQRWIIKPFSFNSIQDGIYQFMTVINQDLIADLTTNNYTIATKTNNYSSNQKWTVTYNDKKRAYKIRNLQHAHLSLAWDSNHSDKIFGATGDYDDQYWIPILQTDGSFIFRNYKNPNKIFGTNGQPINDIPLKAQDVTGQNNQKWYLRHLNSSNNFTGYFNISSKKNFNKIITMNSNKTQAVIFDNIGINNQSWKLKYNDNKNAYQIHILDNFLYFQGGHNIVATMRNVTNDDLRSYWYVEYNFNKDGFIIRNAFDTSYVLDVFQGNFANNTPIITYQNYLNDNQLWNFIPSLGVEPR | soluble
13 | AAIAEKDLGNAAYKQKDFEKAHVHYDKAIELDPSNITFYNNKAAVYFEEKKFAECVQFCEKAVEVGRETRADYKLIAKAMSRAGNAFQKQNDLSLAVQWFHRSLSEFRDPELVKKVKELEKQLKAAERLAYINPELAQEEKNKGNEYFKKGDYPTAMRHYNEAVKRDPENAILYSNRAACLTKLMEFQRALDDCDTCIRLDSKFIKGYIRKAACLVAMREWSKAQRAYEDALQVDPSNEEAREGVRNCLRSNDEDPEKAKERSLADPEVQEILRDPGMRMILEQMSNDPGAVREHLKNPEIFQKLMKLRD | not soluble
14 | GVLPVEKCNLEDSACMTSAFQQALPTFVAGLPDHGVEVMDVLDLDDFAFDLSGLQFTLKEGKLKGLKGAVIDNVKWDLKKKNIEVDFHLDATVKGHYTAGGRILILPITGDGQMKLKLKNIHIHLVVSYEMEKDAEGVDHVIFKKYTVTFDVKDNAQFGLTNLFNGNKELSDTMLTFLNQNWKQVSEEFGKPVMEAAAKKIFKNIKHFLAKVPIAEIANV | soluble
15 | FGIIRGLMMHVTLVEINVHDDKVEQFIDVFRQNHLGSIKEPGNLRFDVLQDPQVLTRFYIYEAYVDEQAVAFHKTTPHYKTCVEQLEPLMTGPRTKKVFMGL | not soluble
16 | MMGFEKVEHLLPDTVLDIVDVIGLAATEQLVKAIGGARFKFGKGKVDTERLAILVEAIGEVKTHELLQVYGGEELYVPRCGKALIQLRNHRFYQEFVKLRDIDKKSGLMAMTKLCPKYGISSRTGYTIINEMSRPAAQQAALF | not soluble
17 | MDRNPSEPERIDWKNPITWISYLYTSFVYYLWLISSHLPHLPQPQRITDDKSTEQITRDAGIPRTEIVTRGDATQTVRQVAGLGDPAPKDSSLLPPSSSFVYCNNCLTPHSSQRTCSPAYVSTLSRQKSLTLLKKLKKPSSSASSTTTTTSSTVSFRAPSRASSTISDASTIRPSELIAIVPSGSHVLLRVPKLDWKTESIRIKRTRMSDWMDAEQRDVMRQFDEVIRSEEEDERTSRKRNGIFKDGSVRSIESLESRSRSKETPVFVPPPPPPTDAMPYLPRLAELNKGTPDQEFGFNLHAERGRGHFIGTVDAGGIGEKAGLEAGQRIVGVNGQLIYPTTGHKEVVALIKKDTMKTTLLVASEDVDKYHKDHNIAYSWDNVERVDTRPVINVETHHHHEEVSVPKSNGYDVPPLNPHSIQVNEEREISKMTTTTRTETITNSNSAYQYKESSTAYDAYATPPVDSNDLMDEVFGRVNLPGVTMSSHTEVLPPTDDISSVSSLSSHRESAVDVPVSHQYVPSYATESHQKHEQHSQTHHHHHQHQQPSPLSNGSSHGYAASSTSGYDDDDIYHLSAREARERLRMKNRKHHLHEMSLNEKYQLVSNM | not soluble
